T1: PTK7 (His tag) (UniProt Q13308 31-704)
T1 sequence: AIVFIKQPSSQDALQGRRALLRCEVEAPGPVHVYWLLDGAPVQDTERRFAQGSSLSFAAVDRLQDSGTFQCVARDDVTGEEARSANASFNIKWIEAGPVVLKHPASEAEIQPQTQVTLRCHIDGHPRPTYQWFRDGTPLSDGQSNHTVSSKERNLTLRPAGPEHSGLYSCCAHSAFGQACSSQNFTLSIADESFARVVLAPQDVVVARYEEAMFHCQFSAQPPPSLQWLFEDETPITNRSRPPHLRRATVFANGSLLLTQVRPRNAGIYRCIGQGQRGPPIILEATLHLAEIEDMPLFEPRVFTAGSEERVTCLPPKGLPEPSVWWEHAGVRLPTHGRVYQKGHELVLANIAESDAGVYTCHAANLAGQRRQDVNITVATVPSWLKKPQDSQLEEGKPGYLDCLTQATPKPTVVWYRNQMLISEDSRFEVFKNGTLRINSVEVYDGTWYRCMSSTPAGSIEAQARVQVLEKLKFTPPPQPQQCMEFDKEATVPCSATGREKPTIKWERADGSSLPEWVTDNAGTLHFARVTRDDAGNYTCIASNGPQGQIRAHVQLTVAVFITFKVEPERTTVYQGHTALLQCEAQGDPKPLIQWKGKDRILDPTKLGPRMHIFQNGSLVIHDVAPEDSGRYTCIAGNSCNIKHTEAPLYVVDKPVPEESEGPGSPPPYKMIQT


These binders were tested against T1, PTK7 (His tag) (assay: SPR).

Binding result, no binding:
ATCTAACTTCTGAGCCGCCGGGAAAATACTGTACGGTTAGA (structured_DNA) [G9T·C13A]
ATCTAACTGTTACGCCGCCGGGAAAATACTGTACGGTTAGA (structured_DNA) [C10T·G12A]
ATCTAACTACTGTGCCGCCGGGAAAATACTGTACGGTTAGA (structured_DNA) [G9A·C13T]
ATCTAACTCCTGGGCCGCCGGGAAAATACTGTACGGTTAGA (structured_DNA) [G9C·C13G]
ATCTAACTGGTCCGCCGCCGGGAAAATACTGTACGGTTAGA (structured_DNA) [C10G·G12C]
ATCTAACTGATTCGCCGCCGGGAAAATACTGTACGGTTAGA (structured_DNA) [C10A·G12T]
